Like-named read-outs stand apart in the source and are kept apart here.
B1: GFAT1-His6: human GFAT1 (SEQ ID NO: 2) in which a hexa-histidine purification tag is inserted between amino acids 299 and 300 (protein, UniProt Q06210 2-699, looked up)
Glutamine--fructose-6-phosphat …: CGIFAYLNYHVPRTRREILETLIKGLQRLEYRGYDSAGVGFDGGNDKDWEANACKIQLIKKKGKVKALDEEVHKQQDMDLDIEFDVHLGIAHTRWATHGEPSPVNSHPQRSDKNNEFIVIHNGIITNYKDLKKFLESKGYDFESETDTETIAKLVKYMYDNRESQDTSFTTLVERVIQQLEGAFALVFKSVHFPGQAVGTRRGSPLLIGVRSEHKLSTDHIPILYRTARTQIGSKFTRWGSQGERGKDKKGSCNLSRVDSTTCLFPVEEKAVEYYFASDASAVIEHTNRVIFLEDDDVAAVVDGRLSIHRIKRTAGDHPGRAVQTLQMELQQIMKGNFSSFMQKEIFEQPESVVNTMRGRVNFDDYTVNLGGLKDHIKEIQRCRRLILIACGTSYHAGVATRQVLEELTELPVMVELASDFLDRNTPVFRDDVCFFLSQSGETADTLMGLRYCKERGALTVGITNTVGSSISRETDCGVHINAGPEIGVASTKAYTSQFVSLVMFALMMCDDRISMQERRKEIMLGLKRLPDLIKEVLSMDDEIQKLATELYHQKSVLIMGRGYHYATCLEGALKIKEITYMHSEGILAGELKHGPLALVDKLMPVIMIIMRDHTYAKCQNALQQVVARQGRPVVICDKEDTETIKNTKRTIKVPHSVDCLQGILSVIPLQLLAFHLAVLRGYDVDFPRNLAKSVTVE
modifications: internal His6 tag
B2: recombinant human GFAT1: recombinant human GFAT1 purified by Broschat et al., J. Biol. Chem. (2002) 277:14764 (protein, UniProt Q06210 2-699, looked up)
Glutamine--fructose-6-phosphat …: B1 Glutamine--fructose-6-phosphat …

Experiments:
GFAT activity [1] = biological target: T1, GFAT activity (Homo sapiens, UniProt Q06210, INS317HHHHHH); assay: Morgan-Elson assay of GFAT1-His6 enzyme activity; format: biochemical; details: 30 minutes at 37° C.; D-glucosamine standard curve
T1 construct: made in house; host or cells: Sf9 insect cells (recombinant baculovirus)
T1 sequence (Q06210 with tags, fused parts or gaps isoform Q06210-2 INS299HHHHHH): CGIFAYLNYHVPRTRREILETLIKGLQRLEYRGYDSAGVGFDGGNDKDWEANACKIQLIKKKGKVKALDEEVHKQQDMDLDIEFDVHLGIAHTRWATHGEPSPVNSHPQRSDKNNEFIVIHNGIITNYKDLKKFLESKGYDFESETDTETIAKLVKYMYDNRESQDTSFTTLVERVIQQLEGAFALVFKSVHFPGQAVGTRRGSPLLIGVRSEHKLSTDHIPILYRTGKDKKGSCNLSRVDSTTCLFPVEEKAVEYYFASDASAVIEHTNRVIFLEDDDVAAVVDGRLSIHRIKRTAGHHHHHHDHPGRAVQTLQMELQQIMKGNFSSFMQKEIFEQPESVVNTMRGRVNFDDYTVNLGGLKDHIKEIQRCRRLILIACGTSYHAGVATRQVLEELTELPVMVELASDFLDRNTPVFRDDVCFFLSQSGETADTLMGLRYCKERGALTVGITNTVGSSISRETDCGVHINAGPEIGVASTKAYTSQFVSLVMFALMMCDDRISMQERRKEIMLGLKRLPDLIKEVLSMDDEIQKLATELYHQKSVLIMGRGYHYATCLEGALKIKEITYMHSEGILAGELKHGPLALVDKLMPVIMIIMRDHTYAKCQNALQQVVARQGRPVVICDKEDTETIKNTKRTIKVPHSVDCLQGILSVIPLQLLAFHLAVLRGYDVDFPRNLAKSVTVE
Protocol: In this case the enzyme activity is monitored by a colorimetric test the principle of which is the following: the D-glucosamine-6P released by the enzyme is N-acetylated by acetic anhydride in alkaline medium (Ghosh et al., Method. Enzymol. (1962) 5:414), then the solution is treated with Ehrlich's reagent (para-dimethyl-amino-benzaldehyde, PDAB) in concentrated acid medium; the pink compound formed absorbs at 585 nm.
The enzymatic reaction takes place over 30 minutes at 37° C. in the presence of: • 0.2 ml of 100 mM fructose-6P • 0.25 ml of 60 mM L-Glutamine • 0.25 ml of 150 mM KPO4 buffer, pH 7 • 0.1 ml of 25 mM EDTA (ethylene diamine tetra-acetate), pH 7 • up to 200 μl of sample (to be completed with H2O if necessary)
The reaction is stopped by immersion for 4 minutes in a water bath at 100° C. then centrifuged. […]
The activity of the GFAT was determined by comparison with a standard curve established using D-glucosamine as standard in a concentration range of 0 to 200 nmoles. The specific activity of the GFAT1-His6 obtained was thus measured at 1.7 U/mg. […]

GFAT activity [2] = biological target: T1, GFAT activity; assay: APAD assay (spectrophotometric assay coupled with glutamate dehydrogenase); format: biochemical
Protocol: The kinetic parameters of GFAT1-His6 have been characterized vis-à-vis glutamine (Km^Gln=0.2 mM) and fructose-6P (F6P) (Km^F6P=0.006 mM) by a spectrophotometric assay coupled with glutamate dehydrogenase according to the APAD test. This is in accordance with the values cited in the prior art (Km^Gln=0.26 mM and Km^F6P=0.007 mM for Broschat et al., J. Biol. Chem. (2002) 277:14764).
This is an ultraviolet spectrophotometric assay of the GFAT activity. It is based on the continuous determination of the quantity of L-glutamate formed using GFAT and an analogue of NAD (nicotinamide adenine dinucleotide), APAD (3-acetylpyridine adenine dinucleotide), according to the following reaction (catalyzed by glutamate dehydrogenase (GDH)):
The measurement is carried out at 365 nm, at 37° C. Under these conditions an absorbance unit corresponds to 0.11 μmole of APADH formed.
The test comprises: • 100 μl 3 mM APAD (2 mg/ml) • 25 μl 2M KCl • 100 μl of 1 M KPO4 buffer, pH 7.2 • 100 μl of 100 mM Fructose-6P (30.41 mg/ml) • 100 μl of 60 mM purified L-Glutamine (8.77 mg/ml) • H2O qsf 1 ml (taking into account the volumes to be added hereafter) • 50 μl GDH • sample to be assayed: 0.5 μg

GFAT activity [3] = details: value obtained by Broschat et al., J. Biol. Chem. (2002) 277:14764; cited from earlier work

Molecule	specific activity (GFAT activity [1])	Km (GFAT activity [2]; vis-à-vis fructose-6P, read-out: Km F6P)	Km (GFAT activity [2]; vis-à-vis glutamine, read-out: Km Gln)	specific activity (GFAT activity [3])
B1	1.7 U/mg	6 µM	200 µM	–
B2	–	–	–	0.4 U/mg

From patent US7625734B2, “Glutamine:fructose-6-phosphate amidotransferase (GFAT) comprising an internal purification marker and use thereof for the screening of compounds” (Centre National de la Recherche Scientifique (CNRS), priority 2003, dated 2009)
